According to patent publication US20230272088A1 (SYNTHEKINE, published 2023):

T1: extracellular domain of mIFNGR1 (mouse, UniProt P15261 26-254, conjugated to Alexa647 (site not stated))
T1 construct: Origin and tags of the murine antigen are not described; UniProt P15261 residues 26-254; also called mIFNGR1-ECD; murine IFNGR1 ECD
T1 sequence: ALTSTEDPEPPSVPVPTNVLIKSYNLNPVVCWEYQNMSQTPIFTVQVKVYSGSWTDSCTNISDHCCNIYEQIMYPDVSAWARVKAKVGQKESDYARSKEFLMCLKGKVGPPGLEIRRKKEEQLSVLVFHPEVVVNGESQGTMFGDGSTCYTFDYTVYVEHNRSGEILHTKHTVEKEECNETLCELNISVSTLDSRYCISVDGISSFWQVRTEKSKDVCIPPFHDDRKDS

T2: extracellular domain of hIFNGR1 (human, UniProt P15260 18-245, conjugated to Alexa647 (site not stated))
T2 construct: UniProt P15260 residues 18-245; also called hIFNGR1-ECD; human IFNGR1 ECD
T2 sequence: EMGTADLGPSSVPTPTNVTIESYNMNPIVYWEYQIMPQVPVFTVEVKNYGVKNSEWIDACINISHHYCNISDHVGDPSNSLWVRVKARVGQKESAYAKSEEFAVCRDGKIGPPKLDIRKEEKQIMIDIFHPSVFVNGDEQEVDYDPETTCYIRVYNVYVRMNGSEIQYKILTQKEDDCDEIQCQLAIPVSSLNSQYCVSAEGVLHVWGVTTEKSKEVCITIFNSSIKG

T3: extracellular domain of hIFNGR2 (human, UniProt P38484 28-247, conjugated to Alexa647 (site not stated))
T3 construct: also called hIFNGR2-ECD; human IFNGR2 ECD
T3 sequence: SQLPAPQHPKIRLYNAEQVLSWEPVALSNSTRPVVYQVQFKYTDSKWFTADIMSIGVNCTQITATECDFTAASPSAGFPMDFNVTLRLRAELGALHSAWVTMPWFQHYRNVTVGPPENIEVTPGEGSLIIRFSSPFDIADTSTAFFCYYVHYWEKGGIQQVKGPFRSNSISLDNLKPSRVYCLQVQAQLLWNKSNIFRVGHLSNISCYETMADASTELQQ

B1: DR916 (VHH)
VHH: EVQLVESGGGLVQPGGSLRLSCTASGRPRTTYAMGWFRQAPGKEREIVAAISKAGGSTYVADSAKGRFAISKDNAKNTVYLQMNSLKPEDTAVYYCAARAGFAAQIFEYDYWGQGTLVTVSS
notes: also called anti-IFNGR1 sdAb VHH DR916
B2: DR915 (VHH)
VHH: EVQLVESGGGLVQAGGSLRLSCAAARRTLHNFAMAWFRQAPGKEREFVAAISKGGGSADYADSVKGRFTISRDNAKNTVYLQMNSLKPEDTAVYYCAANDLASYSDSSYTSTSRYDYWGQGTQVTVSS
notes: also called anti-IFNGR1 sdAb VHH DR915
B3: DR910 (VHH)
VHH: EVQLVESGGGLVQTGGSLRLSCAASGRTFSSYAMAWFRQAPGKEREFVAAISILGGSADYEDSVQGRFTISRDNAKNTMYLQMNSLKPEDTAVYYCAARRPAPSDSYWSSTSYAYWGQGTLVTVSS
notes: also called anti-IFNGR1 sdAb VHH DR910
B4: DR924 (VHH)
VHH: QVQLVESGGGLVQAGGSLRLSCTASGRTFSRYAMGWFRQAPGKEREFVATISRSGGTTSYANSVKGRFTISRDNAKNTVYLQMNSLKTEDTAVYNCAARDGPAMGVFGSDYDYWGQGTLVTVSS
notes: also called anti-IFNGR1 sdAb VHH DR924
B5: DR906 (VHH)
VHH: EVQLVESGGGLVQAGGSLRLSCAASGSTFSTYVMGWFRQAPGKEREFVAAISRSGGTTTYADSVKGRFDISRDNGKNTLFLQMNSLIPEDTAAYYCAARAGPAIGRTANDYHSWGQGTLVTVSS
notes: also called anti-IFNGR1 sdAb VHH DR906
B6: DR956 (VHH)
VHH: EVQLVESGGGLVQAGGSLRLSCAASGRTFSSLAMAWFRQAPGKEREFVAATTILGGSADYGDPVKGRFTISRDNAKNTVYLQMNSLKPEDTAVYYCTGRRPAPSDNYWSPASYAYWGQGTQVTVSS
notes: also called anti-IFNGR2 sdAb VHH DR956
B7: DR913 (VHH)
VHH: EVQLVESGGGLVQAGGFLRLSCAASGRTFSSYAMGWFRQIPGKERELVAAISSWSGGSTYYADSVKGRFTISRDNAKNTVYLQMLSLKPEDTAVYYCTTGDYYSDYFKYDNENWGKGTQVTVSS
notes: also called anti-IFNGR1 sdAb VHH DR913
B8: DR905 (VHH)
VHH: EVQLVESGGGLVQAGGSLRLSCVASGRTFTGYAMGWFRQAPGKEREFVAVITWSGATTYYSASVKGRFTLSRDNAKNTVYLQMNSLKSEDTAVYYCAIRIRDGVSPENPNEYGYWGQGTQVTVSS
notes: also called anti-IFNGR1 sdAb VHH DR905
B9: DR911 (VHH)
VHH: EVQLVESGGALVQAGGSLRLSCTVSGRSFSTYAMAWFRRAPGKERELVSAITVGGGSTYYVDSVKGRFTISRENAKNTLYLQMNNLKPEDTAIYICAARDYRRRSYAPEAEQYDYWGQGTQVTVSS
notes: also called anti-IFNGR1 sdAb VHH DR911
B10: DR912 (VHH)
VHH: EVQLVESGGGLVQAGGSLRLSCAPSGRTFSSYAMAWFRQPPGKEREFVAAITVSGASTYYADSVKGRFTISRDNAKNSMYLQMNSLKPEDTAVYYCAAGGPGTIFPDYDYWGQGTQVTVSS
notes: also called anti-IFNGR1 sdAb VHH DR912
B11: DR914 (VHH)
VHH: EVQLVESGGGLVQAGGSLTLSCVASGRAFSNSAMAWFRQTPGKEREFVSAISRGGGSTDYADSVKGRFTISKDNAKNTVYLQMNSLKPEDTAVYYCAMRYYSGRYYESLEYDYWGQGTQVTVSS
notes: also called anti-IFNGR1 sdAb VHH DR914
B12: DR953 (VHH)
VHH: QVQLVESGGGLVQAGDSLRLSCAASGPTFSTYAMAWFRQAPGKEREFVAAITQSGRTTYYEDSVKGRFTISKDNAKNTLYLQMNSLQPEDTAVYYCAARDLWSDSPDDWRIYSFWGQGTQVTVSS
notes: also called anti-IFNGR2 sdAb VHH DR953
B13: DR923 (VHH)
VHH: QVQLVESGGGLVQAGGSLRLSCAASRRTFMTYAMGWFRQAPGKEREFVAAISWSSGSTYYADSVKGRFTISRDNAKNTMYLQMNSLKPEDTAVYYCTASSIATMYGPNDYAGQGTLVTVSS
notes: also called anti-IFNGR1 sdAb VHH DR923
B14: DR920 (VHH)
VHH: EVQLVESGGGLVQAGGSLRLSCAASGRSFANYAMGWFRQAPGKERETVAAISRGGGSTWYADSVKGRFTISKDNAKNTVYLQMNSLKPEDTAIYYCAARSYSGSYTYSFGEYDYWGQGTQVTVSS
notes: also called anti-IFNGR1 sdAb VHH DR920
B15: DR909 (VHH)
VHH: EVQLVESGGGLVQAGGSLRLSCAASGRTFGTSFGALSMGWFRQAPGKEREFVAAITRNTGRTFYADSVKDRFTISRDNAKNTASLQMNSLEPEDTAVYICAATNSYDDLRRSYAYNYWGQGTQVTVSS
notes: also called anti-IFNGR1 sdAb VHH DR909
B16: DR903 (VHH)
VHH: EVQLVESGGGLVQAGGSLRLSCAASGRIASDYTRGWFRQAPGKEREFVAAIIRSVGDSYYADSVKGRFTISIDNAENTVYLQMNSLKPEDTAVYYCAVGGHLYYGSRWRYPASYDYWGQGTQVTVSS
notes: also called anti-IFNGR1 sdAb VHH DR903
B17: DR917 (VHH)
VHH: EVQLVESGGGLVQAGGSLRLSCAASGRTFSGYNMGWFRQAPGKEREFVAAIAWAGSRTYYTDSVKGRFTISRDNAKNTMYLQMNTLRPEDTAVYYCAAHDETYYRLDRVDLYTHWGQGTLVTVSS
notes: also called anti-IFNGR1 sdAb VHH DR917
B18: DR958 (VHH)
VHH: QVQLVESGGGLVQAGDSLTLSCTASGRTFSGYNMGWFRQAPGKERDFVAAINWIGGATYYADSVKGRFTISRDNAKNTVYLQMNSLKPEDTAVYYCHRYSEKFYSGKDYYTRDYDYWGQGTQVTVSS
notes: also called anti-IFNGR2 sdAb VHH DR958
B19: DR926 (VHH)
VHH: EVQLVESGGGLVQAGGSLRLSCAASGRTFSRYAMNWFRQAPGKEREFVAAISWSSGNTYVADSVKGRFTISRDNAKNTMYLQMNNLAPEDTAVYYCAATTIATMSDENTYWGQGTQVTVSS
notes: also called anti-IFNGR1 sdAb VHH DR926
B20: DR922 (VHH)
VHH: QVQLVESGGGLVRAGGSLRLSCAASGSITSINTMGWFRQAPGKQRELVAAITSGGSTNYADSVKGRFTISRDNARNTVYLQMYSLKPEDTAVYYCEADSMYFRGQGTQVTVSS
notes: also called anti-IFNGR1 sdAb VHH DR922
B21: DR925 (VHH)
VHH: EVQLVESGGGLVQAGGSLVLSCAASGRTFSRYAMGWFRQAPGKEREFVAAISIGGGSADYADTVKGRFTISRNNAKNTMYLQMNSLKPEDTAVYYCAARTPRPSSSYFTPQDYEYWGQGTLVTVSS
notes: also called anti-IFNGR1 sdAb VHH DR925
B22: DR918 (VHH)
VHH: EVQLVESGGGLVQAGGSLRLSCATSGLTDSTYGMAWFRQAPGKEREFVAAISRAGGSADHADSVKGRFTVSRDNAKKMVYLQMNSLKPEDTAVYYCASGRSYSSPYDYFNALAYSYWGQGTQVTVSS
notes: also called anti-IFNGR1 sdAb VHH DR918
B23: DR907 (VHH)
VHH: EVQLVESGGGLVQAGGSLRLSCAASGRTFSNYAMGWFRQAPGNEREFVAAINWNIGSTYYADSVKGRFTISRDNAKNTVYLQMNSLKPEDTAVYYCGAVWPTGRLRVDSEYDYWGQGTQVTVSS
notes: also called anti-IFNGR1 sdAb VHH DR907

Tests used:
[1] = biological target: T1, extracellular domain of mIFNGR1; assay: flow cytometry, yeast-displayed VHH, 100 nM Alexa647-conjugated antigen
Protocol: (§1) Binding of individual VHH to human and murine antigen was tested by flow cytometry. Briefly, 2E5 yeast cells expressing a single sdAb clone were added to each well of a 96 well plate. The first plate was incubated with 100 nM of human antigen conjugated to Alexa647 whereas the second plate was incubated with 100 nM of murine antigen conjugated to Alexa647. Yeast cells were washed 3 times with PBS containing 1% bovine serum albumin. Yeast cells were analyzed using flow cytometry and clones showing a mean fluorescence intensity of greater than 1000 were considered as binding molecules. Specificity of sdAbs was confirmed by incubating yeast cells with a irrelevant protein conjugated to Alexa647. Positive clones were sequenced, and sequences analyzed to identify unique clonotypes.

[2] = biological target: T2, extracellular domain of hIFNGR1; assay: as above
Protocol: as §1

[3] = biological target: T3, extracellular domain of hIFNGR2; assay: flow cytometry
[4] = biological target: T2, extracellular domain of hIFNGR1; assay: flow cytometry
[5] = biological target: T1, extracellular domain of mIFNGR1; assay: flow cytometry

Binder	binding result [1]	binding result [2]	binding result [3]	binding result [4]	binding result [5]
B1	binds	binds			
B2	binds	binds			
B3	binds	binds			
B4	binds	binds			
B5	binds	binds			
B6			binds		
B7	binds	binds			
B8	binds	binds			
B9	binds	binds			
B10	binds	binds			
B11	binds	binds			
B12			binds		
B13	binds	binds			
B14	binds	binds			
B15	binds	binds			
B16	binds			binds	
B17	binds	binds			
B18			binds		
B19	binds	binds			
B20	binds	binds			
B21	binds	binds			
B22	binds	binds			
B23		binds			binds
